The target of this test is parental cyclophilin A (CypA) (rhesus macaque; identical in sequence to human CypA) (UniProt P62940). As to the kind of experiment: ITC.

On to “HIV-1 N-terminal capsid (CA^N) domain (domain or fragment)”, for which the Kd is 5 µM and the dH is -6.05 kcal/mol. On to “HIV-2 CA^N domain with CA Ala88 introduced (from UniProt P04590 136-279) (domain or fragment)”, for which the Kd is 8 µM.

(Values after publication PMC3556581.)
